Laboratory results: patent publication US10941182 (Amgen, dated 2021)
Starred links: 1 amine or outer side, 2 acyl side, 3 side chain; linkers in the order of their positions; H or OH if unused. Non-standard residues stand in square brackets, D forms with d. *: point of attachment. AC4Abu = α-carboxy-4-aminobutyric acid, O=C(C(CCN[*:1])C(=O)[*:3])[*:2]; Oic = O=C(O)[C@@H]1C[C@@H]2CCCC[C@@H]2N1; Phe(4-Cl) = N[C@@H](Cc1ccc(Cl)cc1)C(=O)O; dPhe(4-Cl) = N[C@H](Cc1ccc(Cl)cc1)C(=O)O; γGlu = O=C(O)[C@H](CCC(=O)[*:2])N[*:1]; 2Nal = N[C@@H](Cc1ccc2ccccc2c1)C(=O)O; NMeR = CN[C@@H](CCCNC(=N)N)C(=O)O; Tridecanoyl = CCCCCCCCCCCCC(=O)*; hArg = N=C(N)NCCCC[C@H](N)C(=O)O; Cha = N[C@@H](CC1CCCCC1)C(=O)O; β3hP = O=C(O)C[C@@H]1CCCN1; Nle = CCCC[C@H](N)C(=O)O; Deg = CCC(N)(CC)C(=O)O; AEEA = NCCOCCOCC(=O)O; βAla = NCCC(=O)O

T1: human APJ receptor (human, UniProt P35414 1-380)
T1 sequence (looked up): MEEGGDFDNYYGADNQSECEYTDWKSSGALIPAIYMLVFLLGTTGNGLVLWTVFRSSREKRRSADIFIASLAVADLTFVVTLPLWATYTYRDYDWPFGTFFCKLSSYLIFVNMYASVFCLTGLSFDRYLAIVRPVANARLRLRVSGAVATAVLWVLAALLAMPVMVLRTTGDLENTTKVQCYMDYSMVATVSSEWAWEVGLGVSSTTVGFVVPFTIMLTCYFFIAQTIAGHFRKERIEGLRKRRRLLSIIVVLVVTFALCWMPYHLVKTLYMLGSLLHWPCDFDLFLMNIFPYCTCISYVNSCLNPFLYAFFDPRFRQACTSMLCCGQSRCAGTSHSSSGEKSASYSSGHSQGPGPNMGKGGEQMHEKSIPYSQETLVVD

T2: rat APJ receptor (rat, UniProt Q9JHG3 1-377)
T2 sequence (looked up): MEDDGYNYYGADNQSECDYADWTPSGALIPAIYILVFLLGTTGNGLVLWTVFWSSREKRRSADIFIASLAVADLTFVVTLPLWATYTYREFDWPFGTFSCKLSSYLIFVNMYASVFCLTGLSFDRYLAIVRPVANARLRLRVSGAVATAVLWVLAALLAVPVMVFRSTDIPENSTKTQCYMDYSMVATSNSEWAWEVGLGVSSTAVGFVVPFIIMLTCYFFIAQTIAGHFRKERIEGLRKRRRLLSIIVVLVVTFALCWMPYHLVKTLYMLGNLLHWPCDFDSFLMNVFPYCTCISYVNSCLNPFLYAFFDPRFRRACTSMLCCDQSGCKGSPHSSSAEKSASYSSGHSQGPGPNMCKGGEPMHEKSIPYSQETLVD

B1: Apelin polypeptide SEQ ID NO: 451 (peptide)
peptide: Tridecanoyl-[γGlu][AEEA][AEEA][dQ][hArg]P[dR][Cha]S[Deg]KG[Oic][Nle]P[Phe(4-Cl)]-OH
SMILES: CCCCCCCCCCCCC(=O)N[C@@H](CCC(=O)NCCOCCOCC(=O)NCCOCCOCC(=O)N[C@H](CCC(N)=O)C(=O)N[C@@H](CCCCNC(=N)N)C(=O)N1CCC[C@H]1C(=O)N[C@H](CCCNC(=N)N)C(=O)N[C@@H](CC1CCCCC1)C(=O)N[C@@H](CO)C(=O)NC(CC)(CC)C(=O)N[C@@H](CCCCN)C(=O)NCC(=O)N1[C@H](C(=O)N[C@@H](CCCC)C(=O)N2CCC[C@H]2C(=O)N[C@@H](Cc2ccc(Cl)cc2)C(=O)O)C[C@@H]2CCCC[C@@H]21)C(=O)O
B2: Apelin polypeptide SEQ ID NO: 296 (peptide)
peptide: Tridecanoyl-[γGlu][AEEA][AEEA][dQ][hArg]P[NMeR][Cha]SHKG[Oic][Nle][β3hP][dPhe(4-Cl)]-OH
SMILES: CCCCCCCCCCCCC(=O)N[C@@H](CCC(=O)NCCOCCOCC(=O)NCCOCCOCC(=O)N[C@H](CCC(N)=O)C(=O)N[C@@H](CCCCNC(=N)N)C(=O)N1CCC[C@H]1C(=O)N(C)[C@@H](CCCNC(=N)N)C(=O)N[C@@H](CC1CCCCC1)C(=O)N[C@@H](CO)C(=O)N[C@@H](Cc1c[nH]cn1)C(=O)N[C@@H](CCCCN)C(=O)NCC(=O)N1[C@H](C(=O)N[C@@H](CCCC)C(=O)N2CCC[C@H]2CC(=O)N[C@H](Cc2ccc(Cl)cc2)C(=O)O)C[C@@H]2CCCC[C@@H]21)C(=O)O
B3: Apelin polypeptide SEQ ID NO: 405 (peptide)
peptide: Tridecanoyl-[AC4Abu][AEEA][AEEA]Q[hArg]P[NMeR][Cha]SHKG[Oic][Nle]P[2Nal]-OH
SMILES: CCCCCCCCCCCCC(=O)NCCC(C(=O)O)C(=O)NCCOCCOCC(=O)NCCOCCOCC(=O)N[C@@H](CCC(N)=O)C(=O)N[C@@H](CCCCNC(=N)N)C(=O)N1CCC[C@H]1C(=O)N(C)[C@@H](CCCNC(=N)N)C(=O)N[C@@H](CC1CCCCC1)C(=O)N[C@@H](CO)C(=O)N[C@@H](Cc1c[nH]cn1)C(=O)N[C@@H](CCCCN)C(=O)NCC(=O)N1[C@H](C(=O)N[C@@H](CCCC)C(=O)N2CCC[C@H]2C(=O)N[C@@H](Cc2ccc3ccccc3c2)C(=O)O)C[C@@H]2CCCC[C@@H]21
B4: Apelin polypeptide SEQ ID NO: 294 (peptide)
peptide: Tridecanoyl-[γGlu][AEEA][AEEA][dQ][hArg]P[NMeR][Cha]SHK[βAla][Oic][Nle]P[dPhe(4-Cl)]-OH
SMILES: CCCCCCCCCCCCC(=O)N[C@@H](CCC(=O)NCCOCCOCC(=O)NCCOCCOCC(=O)N[C@H](CCC(N)=O)C(=O)N[C@@H](CCCCNC(=N)N)C(=O)N1CCC[C@H]1C(=O)N(C)[C@@H](CCCNC(=N)N)C(=O)N[C@@H](CC1CCCCC1)C(=O)N[C@@H](CO)C(=O)N[C@@H](Cc1c[nH]cn1)C(=O)N[C@@H](CCCCN)C(=O)NCCC(=O)N1[C@H](C(=O)N[C@@H](CCCC)C(=O)N2CCC[C@H]2C(=O)N[C@H](Cc2ccc(Cl)cc2)C(=O)O)C[C@@H]2CCCC[C@@H]21)C(=O)O
B5: Apelin polypeptide SEQ ID NO: 478 (peptide)
peptide: Tridecanoyl-[γGlu][AEEA][AEEA][dQ][hArg]P[NMeR][Cha]SHKG[Oic][Nle]P[Phe(4-Cl)]-OH
SMILES: CCCCCCCCCCCCC(=O)N[C@@H](CCC(=O)NCCOCCOCC(=O)NCCOCCOCC(=O)N[C@H](CCC(N)=O)C(=O)N[C@@H](CCCCNC(=N)N)C(=O)N1CCC[C@H]1C(=O)N(C)[C@@H](CCCNC(=N)N)C(=O)N[C@@H](CC1CCCCC1)C(=O)N[C@@H](CO)C(=O)N[C@@H](Cc1c[nH]cn1)C(=O)N[C@@H](CCCCN)C(=O)NCC(=O)N1[C@H](C(=O)N[C@@H](CCCC)C(=O)N2CCC[C@H]2C(=O)N[C@@H](Cc2ccc(Cl)cc2)C(=O)O)C[C@@H]2CCCC[C@@H]21)C(=O)O
B6: Apelin polypeptide SEQ ID NO: 295 (peptide)
peptide: Tridecanoyl-[γGlu][AEEA][AEEA][dQ][hArg]P[NMeR][Cha]SHKG[Oic][Nle][βAla][dPhe(4-Cl)]-OH
SMILES: CCCCCCCCCCCCC(=O)N[C@@H](CCC(=O)NCCOCCOCC(=O)NCCOCCOCC(=O)N[C@H](CCC(N)=O)C(=O)N[C@@H](CCCCNC(=N)N)C(=O)N1CCC[C@H]1C(=O)N(C)[C@@H](CCCNC(=N)N)C(=O)N[C@@H](CC1CCCCC1)C(=O)N[C@@H](CO)C(=O)N[C@@H](Cc1c[nH]cn1)C(=O)N[C@@H](CCCCN)C(=O)NCC(=O)N1[C@H](C(=O)N[C@@H](CCCC)C(=O)NCCC(=O)N[C@H](Cc2ccc(Cl)cc2)C(=O)O)C[C@@H]2CCCC[C@@H]21)C(=O)O
B7: Apelin polypeptide SEQ ID NO: 354 (peptide)
peptide: Tridecanoyl-[γGlu][AEEA][AEEA]Q[hArg]P[NMeR]LSHKG[Oic][Nle]P[Phe(4-Cl)]-OH
SMILES: CCCCCCCCCCCCC(=O)N[C@@H](CCC(=O)NCCOCCOCC(=O)NCCOCCOCC(=O)N[C@@H](CCC(N)=O)C(=O)N[C@@H](CCCCNC(=N)N)C(=O)N1CCC[C@H]1C(=O)N(C)[C@@H](CCCNC(=N)N)C(=O)N[C@@H](CC(C)C)C(=O)N[C@@H](CO)C(=O)N[C@@H](Cc1c[nH]cn1)C(=O)N[C@@H](CCCCN)C(=O)NCC(=O)N1[C@H](C(=O)N[C@@H](CCCC)C(=O)N2CCC[C@H]2C(=O)N[C@@H](Cc2ccc(Cl)cc2)C(=O)O)C[C@@H]2CCCC[C@@H]21)C(=O)O
B8: Apelin polypeptide SEQ ID NO: 362 (peptide)
peptide: Tridecanoyl-[γGlu][AEEA][AEEA]Q[hArg]P[NMeR][Cha]SHKG[Oic][Nle]P[Phe(4-Cl)]-OH
SMILES: CCCCCCCCCCCCC(=O)N[C@@H](CCC(=O)NCCOCCOCC(=O)NCCOCCOCC(=O)N[C@@H](CCC(N)=O)C(=O)N[C@@H](CCCCNC(=N)N)C(=O)N1CCC[C@H]1C(=O)N(C)[C@@H](CCCNC(=N)N)C(=O)N[C@@H](CC1CCCCC1)C(=O)N[C@@H](CO)C(=O)N[C@@H](Cc1c[nH]cn1)C(=O)N[C@@H](CCCCN)C(=O)NCC(=O)N1[C@H](C(=O)N[C@@H](CCCC)C(=O)N2CCC[C@H]2C(=O)N[C@@H](Cc2ccc(Cl)cc2)C(=O)O)C[C@@H]2CCCC[C@@H]21)C(=O)O

molecular target: T1, human APJ receptor; experiment: cell-based or functional assay

Binder | EC50 Human APJ Receptor (GTPγS assay) [nM]
B1 | 11.2
B2 | 2.75
B3 | 5.75
XXXQRPRLSHKGPXPF ({TDA}[AC4Abu][Aeea][Aeea]Q[hArg]P[NMeArg]LSHKGP[Nle]P[4-Cl-F]{COOH}) [Apelin polypeptide SEQ ID NO: 353] | 0.095
B4 | > 4170
B5 | 0.496
B6 | 3.29
B7 | 0.279
B8 | 1.97

molecular target: T2, rat APJ receptor; experiment: cell-based or functional assay

Binder | EC50 Rat APJ Receptor (GTPγS assay) [nM]
B1 | 31.6
B2 | 2.32
B3 | 13.8
XXXQRPRLSHKGPXPF ({TDA}[AC4Abu][Aeea][Aeea]Q[hArg]P[NMeArg]LSHKGP[Nle]P[4-Cl-F]{COOH}) [Apelin polypeptide SEQ ID NO: 353] | 0.275
B4 | 30.7
B5 | 0.807
B6 | 10.4
B7 | 0.361
B8 | 3.75
